This is an account of results in patent US20210388087A1 (Chugai, published 2021).

Changes are numbered by the printed parent chain. Names may count otherwise.

Sequences and labels used below:
B1: H183/L072 VH F100gL (antibody, name in Kabat numbering, V domains shown)
VH: QVQLVESGGGLVQPGRSLRLSCAASGFTFSNAWMHWVRQAPGKGLEWVAQIKDKGNAYAAYYAPSVKGRFTISRDDSKNSIYLQMNSLKTEDTAVYYCHYVHYASASTVLPALGVDAWGQGTTVTVSS
VL: DIVMTQSPLSLPVTPGEPASISCQASQELVHMNRNTYLHWYQQKPGQAPRLLIYKVSNRFPGVPDRFSGSGSGTDFTLKISRVEAEDVGVYYCAQGTSVPFTFGQGTKLEIK
B2: H183/L072 VH G52cL (antibody, name in Kabat numbering, V domains shown)
VH: B1 VH with G55L, L113F
VL: B1 VL
B3: H183/L072 VH G26N (antibody, name in Kabat numbering, V domains shown)
VH: B1 VH with G26N, L113F
VL: B1 VL
B4: H183/L072 VH G26F (antibody, name in Kabat numbering, V domains shown)
VH: B1 VH with G26F, L113F
VL: B1 VL
B5: H183/L072 VH G26I (antibody, name in Kabat numbering, V domains shown)
VH: B1 VH with G26I, L113F
VL: B1 VL
B6: H183/L072 VH G26D (antibody, name in Kabat numbering, V domains shown)
VH: B1 VH with G26D, L113F
VL: B1 VL
B7: H183/L072 VH G52cM (antibody, name in Kabat numbering, V domains shown)
VH: B1 VH with G55M, L113F
VL: B1 VL
B8: H183/L072 VH G52cE (antibody, name in Kabat numbering, V domains shown)
VH: B1 VH with G55E, L113F
VL: B1 VL
B9: H183/L072 VH G65I (antibody, name in Kabat numbering, V domains shown)
VH: B1 VH with G68I, L113F
VL: B1 VL
B10: H183/L072 VH G26T (antibody, name in Kabat numbering, V domains shown)
VH: B1 VH with G26T, L113F
VL: B1 VL
B11: H183/L072 VH G52cN (antibody, name in Kabat numbering, V domains shown)
VH: B1 VH with G55N, L113F
VL: B1 VL
B12: H183/L072 VH G100hL (antibody, name in Kabat numbering, V domains shown)
VH: B1 VH with L113F, G114L
VL: B1 VL
B13: H183/L072 VH G26A (antibody, name in Kabat numbering, V domains shown)
VH: B1 VH with G26A, L113F
VL: B1 VL
B14: H183/L072 VH G52cP (antibody, name in Kabat numbering, V domains shown)
VH: B1 VH with G55P, L113F
VL: B1 VL
B15: H183/L072 VH F100gM (antibody, name in Kabat numbering, V domains shown)
VH: B1 VH with L113M
VL: B1 VL
B16: H183/L072 VH G26Q (antibody, name in Kabat numbering, V domains shown)
VH: B1 VH with G26Q, L113F
VL: B1 VL
B17: H183/L072 VH G52cQ (antibody, name in Kabat numbering, V domains shown)
VH: B1 VH with G55Q, L113F
VL: B1 VL
B18: H183/L072 VH G52cW (antibody, name in Kabat numbering, V domains shown)
VH: B1 VH with G55W, L113F
VL: B1 VL
B19: H183/L072 VH G52cR (antibody, name in Kabat numbering, V domains shown)
VH: B1 VH with G55R, L113F
VL: B1 VL
B20: H183/L072 VH G26S (antibody, name in Kabat numbering, V domains shown)
VH: B1 VH with G26S, L113F
VL: B1 VL
B21: H183/L072 VH G52cI (antibody, name in Kabat numbering, V domains shown)
VH: B1 VH with G55I, L113F
VL: B1 VL
B22: H183/L072 VH G52cY (antibody, name in Kabat numbering, V domains shown)
VH: B1 VH with G55Y, L113F
VL: B1 VL
B23: H183/L072 VH G26L (antibody, name in Kabat numbering, V domains shown)
VH: B1 VH with G26L, L113F
VL: B1 VL
B24: H183/L072 VH G100hI (antibody, name in Kabat numbering, V domains shown)
VH: B1 VH with L113F, G114I
VL: B1 VL
B25: H183/L072 VH G100hM (antibody, name in Kabat numbering, V domains shown)
VH: B1 VH with L113F, G114M
VL: B1 VL
B26: H183/L072 VH G26W (antibody, name in Kabat numbering, V domains shown)
VH: B1 VH with G26W, L113F
VL: B1 VL
B27: H183/L072 VH G65P (antibody, name in Kabat numbering, V domains shown)
VH: B1 VH with G68P, L113F
VL: B1 VL
B28: H183/L072 VH G65L (antibody, name in Kabat numbering, V domains shown)
VH: B1 VH with G68L, L113F
VL: B1 VL
B29: H183/L072 VH G52cS (antibody, name in Kabat numbering, V domains shown)
VH: B1 VH with G55S, L113F
VL: B1 VL
B30: H183/L072 VH G26H (antibody, name in Kabat numbering, V domains shown)
VH: B1 VH with G26H, L113F
VL: B1 VL
B31: H183/L072 VH G100hA (antibody, name in Kabat numbering, V domains shown)
VH: B1 VH with L113F, G114A
VL: B1 VL
B32: H183/L072 VH G52cH (antibody, name in Kabat numbering, V domains shown)
VH: B1 VH with G55H, L113F
VL: B1 VL
B33: H183/L072 VH G26Y (antibody, name in Kabat numbering, V domains shown)
VH: B1 VH with G26Y, L113F
VL: B1 VL
B34: H183/L072 VH G52cK (antibody, name in Kabat numbering, V domains shown)
VH: B1 VH with G55K, L113F
VL: B1 VL
B35: H183/L072 VH G52cA (antibody, name in Kabat numbering, V domains shown)
VH: B1 VH with G55A, L113F
VL: B1 VL
B36: H183/L072 VH G52cV (antibody, name in Kabat numbering, V domains shown)
VH: B1 VH with G55V, L113F
VL: B1 VL
B37: H183/L072 VH G52cD (antibody, name in Kabat numbering, V domains shown)
VH: B1 VH with G55D, L113F
VL: B1 VL
B38: H183/L072 VH G26E (antibody, name in Kabat numbering, V domains shown)
VH: B1 VH with G26E, L113F
VL: B1 VL
B39: H183/L072 VH G26R (antibody, name in Kabat numbering, V domains shown)
VH: B1 VH with G26R, L113F
VL: B1 VL
B40: H183/L072 VH G65A (antibody, name in Kabat numbering, V domains shown)
VH: B1 VH with G68A, L113F
VL: B1 VL
B41: H183/L072 VH G52cF (antibody, name in Kabat numbering, V domains shown)
VH: B1 VH with G55F, L113F
VL: B1 VL
B42: H183/L072 VH G52cT (antibody, name in Kabat numbering, V domains shown)
VH: B1 VH with G55T, L113F
VL: B1 VL
B43: H183/L072 VH G65M (antibody, name in Kabat numbering, V domains shown)
VH: B1 VH with G68M, L113F
VL: B1 VL
B44: H183/L072 VH G26P (antibody, name in Kabat numbering, V domains shown)
VH: B1 VH with G26P, L113F
VL: B1 VL

T1 sequence (chain, as listed by the source limits assumed): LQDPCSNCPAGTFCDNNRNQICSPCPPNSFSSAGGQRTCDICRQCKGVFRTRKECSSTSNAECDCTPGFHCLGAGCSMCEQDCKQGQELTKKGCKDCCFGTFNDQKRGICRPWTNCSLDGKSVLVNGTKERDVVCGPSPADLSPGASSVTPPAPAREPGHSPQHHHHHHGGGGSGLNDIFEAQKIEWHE

The assay concerns the target T1, Human CD137 ECD (human).
T1 construct: also called 4-1BB
Nature of the assay: single mutant vs template dBBDu183H.
Regarding B1, the “fold change of affinity” value turned out to be 1.2 fold. For the molecule B2, the “fold change of affinity” value was determined as 0.8 fold. For B3, the “fold change of affinity” value is 0.5 fold. For the molecule B4, the “fold change of affinity” value came to 0.3 fold. In the case of B5, the “fold change of affinity” value was found to be 0.3 fold. With B6 the figure was 0.8 fold; with B7, 0.6 fold; with B8, 0.8 fold. For the molecule B9, the “fold change of affinity” value came out at 1.3 fold.

Regarding B10, the “fold change of affinity” value came out at 0.5 fold. On to B11, for which the “fold change of affinity” value stood at 0.9 fold. With B12 the figure was 0 fold; with B13, 0.4 fold. The same measure for B14: 0.4 fold; for B15: 0.6 fold.

B16: the “fold change of affinity” value was determined as 0.4 fold.

In the case of B17, the “fold change of affinity” value turned out to be 0.7 fold.

For the molecule B18, the “fold change of affinity” value amounted to 2 fold. Take B19: the “fold change of affinity” value worked out at 0.2 fold.

For the molecule B20, the “fold change of affinity” value was found to be 0.4 fold. As to B21, the “fold change of affinity” value came to 0.7 fold. For the molecule B22, the “fold change of affinity” value stood at 2 fold.

With B23, the “fold change of affinity” value was found to be 0.3 fold. B24: the “fold change of affinity” value was 0 fold. On to B25, for which the “fold change of affinity” value was found to be 0 fold. B26: the “fold change of affinity” value turned out to be 0.3 fold.

Take B27: the “fold change of affinity” value was 1.3 fold.

On to B28, for which the “fold change of affinity” value worked out at 1.3 fold. Regarding B29, the “fold change of affinity” value came out at 1.3 fold. With B30 the figure was 0.4 fold; with B31, 0 fold. With B32 the figure was 1.3 fold. In the case of B33, the “fold change of affinity” value is 0.3 fold. Take B34: the “fold change of affinity” value came to 0.2 fold. On to B35, for which the “fold change of affinity” value was 0.8 fold. As to B36, the “fold change of affinity” value was 0.7 fold.

In the case of B37, the “fold change of affinity” value amounted to 0.6 fold. As for B38, the “fold change of affinity” value was 0.5 fold. With B39 the figure was 0.3 fold; with B40, 1.2 fold. With B41 the figure was 1.7 fold. Consider B42, for which the “fold change of affinity” value was 1 fold. In the case of B43, the “fold change of affinity” value came to 1.2 fold. With B44 the figure was 0.1 fold.
